Experiments:
Experiment in all cases: holdup assay
Design in all cases: key: below the threshold = too weak to quantify, mostly under pKd 3.1 to 4
GRIP2_6, Q9C0E4 = target: GRIP2_6, Q9C0E4
LDB3, O75112 = target: LDB3, O75112
GRIP2_7, Q9C0E4 = target: GRIP2_7, Q9C0E4
MPP2, Q14168 = target: T1, MPP2, Q14168
T1 sequence (Q14168 180-250, limits assumed, looked up): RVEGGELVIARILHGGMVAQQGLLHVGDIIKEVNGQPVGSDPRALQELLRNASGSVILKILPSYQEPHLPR

GRIP2_5, Q9C0E4 = target: GRIP2_5, Q9C0E4
Inadl_10, Q8NI35 = target: Inadl_10, Q8NI35
Sequence of Inadl_10, Q8NI35 (Q8NI35 1673-1763): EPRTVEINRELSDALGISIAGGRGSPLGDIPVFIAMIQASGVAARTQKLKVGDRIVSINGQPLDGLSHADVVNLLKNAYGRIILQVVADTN

LNX2_2, Q8N448 = target: T2, LNX2_2, Q8N448
T2 sequence (Q8N448 334-432, limits assumed, looked up): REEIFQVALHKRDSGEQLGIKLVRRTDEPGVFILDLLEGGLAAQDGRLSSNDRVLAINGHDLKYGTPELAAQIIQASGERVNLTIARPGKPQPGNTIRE

SCRIB_3, Q14160 = target: SCRIB_3, Q14160
Sequence of SCRIB_3, Q14160 (Q14160 999-1103): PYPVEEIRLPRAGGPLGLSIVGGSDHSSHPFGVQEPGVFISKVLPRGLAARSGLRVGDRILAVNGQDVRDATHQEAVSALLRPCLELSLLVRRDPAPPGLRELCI

SIPA1L2, Q9P2F8 = target: T3, SIPA1L2, Q9P2F8
T3 sequence (Q9P2F8 945-1036, limits assumed, looked up): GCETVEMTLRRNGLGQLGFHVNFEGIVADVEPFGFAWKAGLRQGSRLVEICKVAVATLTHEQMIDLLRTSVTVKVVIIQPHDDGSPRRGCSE

MPDZ_10, O75970 = target: T4, MPDZ_10, O75970
T4 sequence (O75970 1624-1722, limits assumed, looked up): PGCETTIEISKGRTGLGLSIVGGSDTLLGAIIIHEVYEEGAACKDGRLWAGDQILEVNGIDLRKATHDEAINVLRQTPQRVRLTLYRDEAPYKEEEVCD

HTRA2, O43464 = target: HTRA2, O43464
Sequence of HTRA2, O43464 (O43464 355-458): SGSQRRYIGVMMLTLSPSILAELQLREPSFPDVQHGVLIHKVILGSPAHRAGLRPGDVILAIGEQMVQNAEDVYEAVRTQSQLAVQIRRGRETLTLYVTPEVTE

DFNB31_2, Q9P202 = target: T5, DFNB31_2, Q9P202
T5 sequence (Q9P202 274-371, limits assumed, looked up): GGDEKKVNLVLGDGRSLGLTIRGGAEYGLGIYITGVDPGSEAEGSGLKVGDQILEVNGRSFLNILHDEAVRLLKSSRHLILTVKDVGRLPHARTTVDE

GORASP1, Q9BQQ3 = target: GORASP1, Q9BQQ3
Sequence of GORASP1, Q9BQQ3 (Q9BQQ3 1-208): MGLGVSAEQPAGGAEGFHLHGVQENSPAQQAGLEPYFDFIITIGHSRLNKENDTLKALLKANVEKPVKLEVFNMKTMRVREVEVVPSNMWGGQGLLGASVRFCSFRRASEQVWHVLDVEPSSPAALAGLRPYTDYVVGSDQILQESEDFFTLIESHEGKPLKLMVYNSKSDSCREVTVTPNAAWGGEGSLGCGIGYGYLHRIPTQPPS

APBA2_2, Q99767 = target: T6, APBA2_2, Q99767
T6 sequence (Q99767 654-744, limits assumed, looked up): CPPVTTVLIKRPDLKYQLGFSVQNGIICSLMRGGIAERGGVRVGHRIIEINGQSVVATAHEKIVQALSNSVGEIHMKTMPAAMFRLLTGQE

DVL3, Q92997 = target: T7, DVL3, Q92997
T7 sequence (Q92997 244-331, limits assumed, looked up): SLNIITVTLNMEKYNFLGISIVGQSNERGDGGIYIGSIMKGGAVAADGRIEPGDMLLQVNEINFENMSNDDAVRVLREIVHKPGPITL

DLG2_3, Q15700 = target: DLG2_3, Q15700
MAGI1_2, Q96QZ7 = target: MAGI1_2, Q96QZ7
Sequence of MAGI1_2, Q96QZ7 (Q96QZ7 456-580): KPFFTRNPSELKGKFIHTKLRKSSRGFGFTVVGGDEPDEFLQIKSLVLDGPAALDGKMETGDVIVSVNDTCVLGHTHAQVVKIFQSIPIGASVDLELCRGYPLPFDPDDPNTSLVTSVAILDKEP

FRMPD1, Q5SYB0 = target: T8, FRMPD1, Q5SYB0
T8 sequence (Q5SYB0 52-145, limits assumed, looked up): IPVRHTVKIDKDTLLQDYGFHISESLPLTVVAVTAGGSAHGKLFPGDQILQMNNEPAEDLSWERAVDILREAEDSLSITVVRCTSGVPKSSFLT

NOS1, P29475 = target: NOS1, P29475
Sequence of NOS1, P29475 (P29475 9-101): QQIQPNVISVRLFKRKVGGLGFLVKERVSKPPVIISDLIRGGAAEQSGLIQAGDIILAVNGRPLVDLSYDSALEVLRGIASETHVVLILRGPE

NHERF4_2, Q86UT5 = target: NHERF4_2, Q86UT5
Sequence of NHERF4_2, Q86UT5 (Q86UT5 220-308): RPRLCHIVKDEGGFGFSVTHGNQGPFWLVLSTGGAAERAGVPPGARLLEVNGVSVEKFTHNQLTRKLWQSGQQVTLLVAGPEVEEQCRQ

GRIP2_4, Q9C0E4 = target: GRIP2_4, Q9C0E4
Sequence of GRIP2_4, Q9C0E4 (Q9C0E4 446-548): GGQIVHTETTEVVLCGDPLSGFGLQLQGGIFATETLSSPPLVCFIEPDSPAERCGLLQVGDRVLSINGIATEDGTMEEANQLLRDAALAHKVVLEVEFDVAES

PARD3_3, Q8TEW0 = target: PARD3_3, Q8TEW0
Sequence of PARD3_3, Q8TEW0 (Q8TEW0 582-685): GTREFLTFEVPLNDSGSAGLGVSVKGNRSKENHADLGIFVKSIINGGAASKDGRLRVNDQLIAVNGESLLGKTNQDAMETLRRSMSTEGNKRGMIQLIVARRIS

DLG3_1, Q92796 = target: T9, DLG3_1, Q92796
T9 sequence (Q92796 125-227, limits assumed, looked up): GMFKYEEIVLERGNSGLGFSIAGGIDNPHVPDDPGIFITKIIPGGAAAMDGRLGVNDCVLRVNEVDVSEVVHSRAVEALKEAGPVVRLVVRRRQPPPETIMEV

DLG1_1, Q12959 = target: DLG1_1, Q12959
LIN7C, Q9NUP9 = target: T10, LIN7C, Q9NUP9
T10 sequence (Q9NUP9 88-185, limits assumed, looked up): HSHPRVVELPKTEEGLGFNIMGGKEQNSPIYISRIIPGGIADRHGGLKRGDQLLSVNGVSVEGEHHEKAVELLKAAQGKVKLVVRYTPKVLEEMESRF

TX1BP3, O14907 = target: T11, TX1BP3, O14907
T11 sequence (O14907 10-122, limits assumed, looked up): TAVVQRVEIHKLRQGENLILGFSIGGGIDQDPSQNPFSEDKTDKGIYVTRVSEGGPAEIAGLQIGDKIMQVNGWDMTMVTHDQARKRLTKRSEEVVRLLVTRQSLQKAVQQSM

[1] = plain residues with an end cap or a label only (N-terminal biotin on a linker: ahx)
[2] = plain residues with an end cap or a label only (N-terminal biotin on a linker: ttds)

Sequence of GRIP2_6, Q9C0E4 (Q9C0E4 648-740): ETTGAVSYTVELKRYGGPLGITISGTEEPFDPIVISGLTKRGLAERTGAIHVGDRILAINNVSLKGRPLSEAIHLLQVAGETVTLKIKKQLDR
Sequence of GRIP2_5, Q9C0E4 (Q9C0E4 544-642): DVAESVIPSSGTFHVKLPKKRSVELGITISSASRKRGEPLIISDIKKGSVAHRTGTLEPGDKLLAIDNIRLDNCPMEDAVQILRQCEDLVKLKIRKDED
Sequence of LDB3, O75112 (O75112 1-94): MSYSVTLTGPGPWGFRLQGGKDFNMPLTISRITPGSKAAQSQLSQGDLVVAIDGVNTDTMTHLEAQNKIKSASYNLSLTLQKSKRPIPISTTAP
Sequence of GRIP2_7, Q9C0E4 (Q9C0E4 934-1023): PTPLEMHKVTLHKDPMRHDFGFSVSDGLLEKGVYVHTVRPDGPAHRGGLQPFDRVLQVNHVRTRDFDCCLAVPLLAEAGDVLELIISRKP

For GIFPTLTSPL [SHROOM3, Q8TF72], the pKd (GRIP2_6, Q9C0E4; [1]) was “below the threshold”, the pKd (LDB3, O75112; [1]) was “below the threshold” and the pKd (GRIP2_7, Q9C0E4; [1]) was “below the threshold”. The pKd (MPP2, Q14168; [1]) was “below the threshold”, the pKd (GRIP2_5, Q9C0E4; [1]) was “below the threshold” and the pKd (Inadl_10, Q8NI35; [1]) was “below the threshold”. For the same binder, the pKd (LNX2_2, Q8N448; [1]) was “below the threshold”, the pKd (SCRIB_3, Q14160; [1]) was “below the threshold” and the pKd (SIPA1L2, Q9P2F8; [1]) was “below the threshold”. The pKd (MPDZ_10, O75970; [1]) was 3.77, the pKd (HTRA2, O43464; [1]) was “below the threshold” and the pKd (DFNB31_2, Q9P202; [1]) was “below the threshold”. For the same binder, the pKd (GORASP1, Q9BQQ3; [1]) was “below the threshold”, the pKd (APBA2_2, Q99767; [1]) was “below the threshold” and the pKd (DVL3, Q92997; [1]) was “below the threshold”. For the same binder, the pKd (DLG2_3, Q15700; [1]) was “below the threshold”, the pKd (MAGI1_2, Q96QZ7; [1]) was “below the threshold” and the pKd (FRMPD1, Q5SYB0; [1]) was “below the threshold”. The pKd (NOS1, P29475; [1]) was “below the threshold”, the pKd (NHERF4_2, Q86UT5; [1]) was “below the threshold” and the pKd (GRIP2_4, Q9C0E4; [1]) was “below the threshold”. For the same binder, the pKd (PARD3_3, Q8TEW0; [1]) was “below the threshold”, the pKd (DLG3_1, Q92796; [1]) was “below the threshold” and the pKd (DLG1_1, Q12959; [1]) was “below the threshold”. For the same binder, the pKd (LIN7C, Q9NUP9; [1]) was “below the threshold” and the pKd (TX1BP3, O14907; [1]) was 3.65.

With NQLAWFDTDL [CTNNB1, P35222] the pKd (GRIP2_6, Q9C0E4; [2]) was “below the threshold”, the pKd (LDB3, O75112; [2]) was 3.99 and the pKd (GRIP2_7, Q9C0E4; [2]) was “below the threshold”. The pKd (MPP2, Q14168; [2]) was “below the threshold”, the pKd (GRIP2_5, Q9C0E4; [2]) was “below the threshold” and the pKd (Inadl_10, Q8NI35; [2]) was “below the threshold”. For the same binder, the pKd (LNX2_2, Q8N448; [2]) was “below the threshold”, the pKd (SCRIB_3, Q14160; [2]) was 4.82 and the pKd (SIPA1L2, Q9P2F8; [2]) was “below the threshold”. For the same binder, the pKd (MPDZ_10, O75970; [2]) was “below the threshold”, the pKd (HTRA2, O43464; [2]) was “below the threshold” and the pKd (DFNB31_2, Q9P202; [2]) was “below the threshold”. The pKd (GORASP1, Q9BQQ3; [2]) was “below the threshold”, the pKd (APBA2_2, Q99767; [2]) was “below the threshold” and the pKd (DVL3, Q92997; [2]) was “below the threshold”. The pKd (DLG2_3, Q15700; [2]) was “below the threshold”, the pKd (MAGI1_2, Q96QZ7; [2]) was “below the threshold” and the pKd (FRMPD1, Q5SYB0; [2]) was “below the threshold”. The pKd (NOS1, P29475; [2]) was “below the threshold”, the pKd (NHERF4_2, Q86UT5; [2]) was “below the threshold” and the pKd (GRIP2_4, Q9C0E4; [2]) was “below the threshold”. For the same binder, the pKd (PARD3_3, Q8TEW0; [2]) was “below the threshold”, the pKd (DLG3_1, Q92796; [2]) was “below the threshold” and the pKd (DLG1_1, Q12959; [2]) was “below the threshold”. The pKd (LIN7C, Q9NUP9; [2]) was “below the threshold” and the pKd (TX1BP3, O14907; [2]) was 5.99.
